This is an account of results in patent publication US20220409739A1 (OXFORD UNIVERSITY INNOVATION, published 2022).

B1: GAPDH-cMyc protein (enzyme)
chain: not shown
notes: also called GAPDH-cMye; not shown: cMyc tag

Holding throughout (assay): co-immunoprecipitation on cMyc beads from HEK293T cell lysate, western blot
Background: A western blot detects proteins with antibodies after separation by electrophoresis.

The target in test [1] is Insulin triphosphate receptor 3 (IPR3) (UniProt Q14573 1-2671).
Insulin triphosphate receptor 3 (IPR3), sequence (Q14573 whole entry): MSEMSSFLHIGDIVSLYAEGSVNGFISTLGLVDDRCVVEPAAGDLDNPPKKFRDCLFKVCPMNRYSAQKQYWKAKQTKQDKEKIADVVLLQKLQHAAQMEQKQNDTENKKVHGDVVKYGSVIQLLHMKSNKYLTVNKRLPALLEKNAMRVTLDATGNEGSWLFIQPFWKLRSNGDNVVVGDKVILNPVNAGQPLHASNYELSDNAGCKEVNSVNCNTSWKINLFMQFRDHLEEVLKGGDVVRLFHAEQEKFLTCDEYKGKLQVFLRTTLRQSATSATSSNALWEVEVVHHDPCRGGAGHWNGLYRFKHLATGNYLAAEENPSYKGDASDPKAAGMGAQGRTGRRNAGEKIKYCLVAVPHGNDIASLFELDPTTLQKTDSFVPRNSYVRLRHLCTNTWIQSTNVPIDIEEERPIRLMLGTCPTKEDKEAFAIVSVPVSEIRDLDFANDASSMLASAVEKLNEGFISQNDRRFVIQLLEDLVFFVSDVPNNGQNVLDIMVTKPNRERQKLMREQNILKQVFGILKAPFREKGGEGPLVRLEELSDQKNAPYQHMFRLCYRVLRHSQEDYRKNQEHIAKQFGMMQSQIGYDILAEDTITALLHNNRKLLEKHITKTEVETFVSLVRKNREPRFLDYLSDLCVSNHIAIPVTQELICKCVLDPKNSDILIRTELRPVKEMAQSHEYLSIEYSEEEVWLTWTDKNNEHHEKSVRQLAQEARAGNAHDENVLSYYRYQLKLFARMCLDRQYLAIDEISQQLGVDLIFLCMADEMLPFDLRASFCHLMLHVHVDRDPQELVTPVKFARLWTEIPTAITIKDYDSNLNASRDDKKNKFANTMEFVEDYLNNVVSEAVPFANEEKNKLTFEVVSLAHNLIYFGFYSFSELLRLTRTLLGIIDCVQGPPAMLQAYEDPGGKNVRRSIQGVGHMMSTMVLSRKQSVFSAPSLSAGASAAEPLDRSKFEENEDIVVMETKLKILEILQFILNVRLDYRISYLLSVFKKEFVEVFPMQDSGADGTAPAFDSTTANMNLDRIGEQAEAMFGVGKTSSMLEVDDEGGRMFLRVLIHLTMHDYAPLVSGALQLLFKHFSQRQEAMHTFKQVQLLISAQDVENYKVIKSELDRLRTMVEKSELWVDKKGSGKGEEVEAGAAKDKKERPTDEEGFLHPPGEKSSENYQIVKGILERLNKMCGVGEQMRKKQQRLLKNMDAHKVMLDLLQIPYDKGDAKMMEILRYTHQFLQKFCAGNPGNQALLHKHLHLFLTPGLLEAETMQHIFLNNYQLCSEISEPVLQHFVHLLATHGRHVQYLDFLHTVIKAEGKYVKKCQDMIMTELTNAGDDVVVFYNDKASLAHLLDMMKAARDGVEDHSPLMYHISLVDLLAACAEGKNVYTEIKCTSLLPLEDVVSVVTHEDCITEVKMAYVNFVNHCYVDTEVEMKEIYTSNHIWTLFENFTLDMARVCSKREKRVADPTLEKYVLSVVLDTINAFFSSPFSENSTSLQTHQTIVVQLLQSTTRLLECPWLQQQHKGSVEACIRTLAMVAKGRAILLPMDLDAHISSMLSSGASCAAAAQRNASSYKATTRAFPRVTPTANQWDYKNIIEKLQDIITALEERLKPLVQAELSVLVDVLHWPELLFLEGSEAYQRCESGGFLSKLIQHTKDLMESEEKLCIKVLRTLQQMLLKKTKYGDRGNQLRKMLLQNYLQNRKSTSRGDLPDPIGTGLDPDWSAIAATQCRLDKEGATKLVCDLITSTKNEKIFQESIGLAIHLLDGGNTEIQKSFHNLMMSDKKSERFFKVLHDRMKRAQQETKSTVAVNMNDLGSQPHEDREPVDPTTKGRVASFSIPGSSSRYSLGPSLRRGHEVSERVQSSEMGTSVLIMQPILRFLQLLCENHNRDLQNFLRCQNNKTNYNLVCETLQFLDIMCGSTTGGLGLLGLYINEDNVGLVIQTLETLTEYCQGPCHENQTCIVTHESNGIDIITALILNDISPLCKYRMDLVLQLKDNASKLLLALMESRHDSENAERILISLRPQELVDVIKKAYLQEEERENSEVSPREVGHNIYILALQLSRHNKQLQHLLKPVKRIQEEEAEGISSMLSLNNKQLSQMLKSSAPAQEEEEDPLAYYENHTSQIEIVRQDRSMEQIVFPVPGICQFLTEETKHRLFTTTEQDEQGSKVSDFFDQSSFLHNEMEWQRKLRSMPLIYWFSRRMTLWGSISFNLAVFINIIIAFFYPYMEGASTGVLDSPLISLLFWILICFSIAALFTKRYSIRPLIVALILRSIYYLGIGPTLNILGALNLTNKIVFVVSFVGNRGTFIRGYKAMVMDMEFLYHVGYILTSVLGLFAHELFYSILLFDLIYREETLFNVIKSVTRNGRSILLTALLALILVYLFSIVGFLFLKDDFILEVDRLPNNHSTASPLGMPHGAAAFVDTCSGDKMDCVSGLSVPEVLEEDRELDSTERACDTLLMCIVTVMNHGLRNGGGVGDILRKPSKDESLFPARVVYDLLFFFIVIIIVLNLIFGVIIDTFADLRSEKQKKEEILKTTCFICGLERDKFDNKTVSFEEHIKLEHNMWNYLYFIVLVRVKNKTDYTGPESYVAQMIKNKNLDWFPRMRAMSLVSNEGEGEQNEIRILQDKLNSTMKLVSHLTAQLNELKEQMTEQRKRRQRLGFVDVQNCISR
A further test addresses Argonuate 2 (Ago2) (UniProt Q9UKV8 1-859).
The target of the test “GAPDH-cMyc protein” is B1.

Argonuate 2 (Ago2), sequence (Q9UKV8 whole entry): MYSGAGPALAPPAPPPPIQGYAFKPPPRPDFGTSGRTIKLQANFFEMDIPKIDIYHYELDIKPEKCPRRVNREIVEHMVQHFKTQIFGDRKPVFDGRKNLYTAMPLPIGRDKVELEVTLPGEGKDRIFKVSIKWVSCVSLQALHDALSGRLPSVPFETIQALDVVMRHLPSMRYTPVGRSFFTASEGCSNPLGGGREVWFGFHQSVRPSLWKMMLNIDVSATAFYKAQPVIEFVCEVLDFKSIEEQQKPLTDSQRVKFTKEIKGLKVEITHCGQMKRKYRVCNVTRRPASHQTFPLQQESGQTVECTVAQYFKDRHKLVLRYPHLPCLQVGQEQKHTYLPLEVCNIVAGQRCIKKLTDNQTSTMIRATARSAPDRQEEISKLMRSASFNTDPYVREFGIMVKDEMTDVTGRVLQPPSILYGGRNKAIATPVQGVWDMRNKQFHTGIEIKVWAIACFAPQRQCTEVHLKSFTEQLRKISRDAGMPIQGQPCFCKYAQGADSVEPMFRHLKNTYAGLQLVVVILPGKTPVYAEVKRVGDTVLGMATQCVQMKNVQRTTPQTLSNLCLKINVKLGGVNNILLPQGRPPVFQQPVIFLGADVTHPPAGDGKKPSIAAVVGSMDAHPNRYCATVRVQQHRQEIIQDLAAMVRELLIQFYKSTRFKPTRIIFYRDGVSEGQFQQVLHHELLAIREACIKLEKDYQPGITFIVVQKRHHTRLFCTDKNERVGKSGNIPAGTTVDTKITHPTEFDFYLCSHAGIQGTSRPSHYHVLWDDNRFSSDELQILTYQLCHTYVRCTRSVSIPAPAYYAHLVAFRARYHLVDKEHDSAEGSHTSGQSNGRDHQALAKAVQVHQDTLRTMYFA
GAPDH-cMyc protein, sequence (P04406 whole entry): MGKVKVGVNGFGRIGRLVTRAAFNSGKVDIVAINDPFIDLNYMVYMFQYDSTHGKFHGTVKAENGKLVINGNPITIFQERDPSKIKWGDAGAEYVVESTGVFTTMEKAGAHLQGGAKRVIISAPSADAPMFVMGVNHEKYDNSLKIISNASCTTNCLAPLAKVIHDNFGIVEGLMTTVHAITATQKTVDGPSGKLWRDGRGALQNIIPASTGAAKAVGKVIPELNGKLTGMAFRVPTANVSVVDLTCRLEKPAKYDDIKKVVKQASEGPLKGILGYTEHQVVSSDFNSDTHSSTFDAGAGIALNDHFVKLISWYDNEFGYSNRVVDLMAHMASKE

Turning to B1, the binding result (in test [1]; in the test with Argonuate 2 (Ago2)) was “no binding” each time.

B2: mitochondrial import receptor subunit TOM20 (other, UniProt Q15388 1-145, looked up)
chain: MVGRNSAIAAGVCGALFIGYCIYFDRKRRSDPNFKNRLRERRKKQKLAKERAGLSKLPDLKDAEAVQKFFLEEIQLGEELLAQGEYEKGVDHLTNAIAVCGQPQQLLQVLQQTLPPPVFQMLLTKLPTISQRIVSAQSLAEDDVE
Consider B2, for which the binding result in the test with GAPDH-cMyc protein is given as “no binding”.
